Data published in US10100129B2, “Antibodies against CD73 and uses thereof” (BRISTOL-MYERS SQUIBB COMPANY, priority 2014, dated 2018).
Blank lines part the entries; values can stand above or below the molecule they belong to.

Experiments:
cyno FcγRs = assay: SPR binding to cyno FcγRs; set-up: species or system cynomolgus; details: read-out: binding affinity to cyno FcγRs
human FcγRs = assay: SPR binding profile to human FcγRs (panel); details: read-out: binding affinity to all other FcγRs
Description: Binding of the constructs to human FcγRs was measured via SPR. hCD64 and hCD32a-H131 binding data for IgG1.1 and IgG2 molecules were consistent with expected values for the different Fcs. IgG1.1f is the most inert Fc.
The binding of antibodies to Fc gamma receptors (FcγRs or FcgRs) was studied using biosensor technologies including Biacore surface plasmon resonance (SPR) and Fortebio Biolayer Interferometry (BLI). SPR studies were performed on a Biacore T100 instrument (GE Healthcare) at 25° C. The Fab fragment from a murine anti-6×His antibody was immobilized on a CM5 sensor chip using EDC/NHS to a density of ˜3000 RU. Various his-tagged FcgRs (7 ug/ml) were captured via the C-terminal his-tag using a contact time of 30 s at 10 ul/min, and the binding of 1.0 μM antibody was evaluated in a running buffer of 10 mM NaPO4, 130 mM NaCl, 0.05% p20 (PBS-T) pH 7.1. FcgRs used for these experiments included CD64 (FcgRI), CD32a-H131 (FcgRIIa-H131), CD32a-R131 (FcgRIIa-R131), CD32b (FcgRIIb), CD16a-V158 (FcgRIIIa-V158), CD16b-NA1 (FcgRIIIb-NA1), and CD16B-NA2 (FcgRIIIb-NA2). BLI experiments were performed on a Fortebio Octet RED instrument (Pall, Fortebio) at 25° C. in 10 mM NaPO4, 130 mM NaCl, 0.05% p20 (PBS-T) pH 7.1. Antibodies were captured out of undiluted expression supernatants on protein A coated sensors, followed by the binding of 1 μM hCD32a-H131, hCD32a-R131, hCD32b, hCD16a-V158, or 0.1 μM hCD64 analytes.
This engineering strategy was further explored by producing other antibodies formatted with IgG2.3G1-AY, IgG2.3G1-AY-S267E (IgG2.3G1-AY-V27), as well as IgG2-B-form variants (IgG2.5G1-AY and IgG2.5G1-AY-V27), and other hybrid antibodies containing different combinations of IgG1 and IgG2 constant domains, and testing the binding of these antibodies to anti-his Fab captured his-tagged FcgRs using Biacore SPR technology.

CD73 on Calu6 cells = target: T1, CD73 on Calu6 cells (Homo sapiens, UniProt P21589); assay: Dual cell line HTRF cAMP assay (Calu-6 and HEK293/A2AR cells); assay type: cell-based
T1 construct: Calu6 (CD73 endogenous expressors; human pulmonary adenocarcinoma cell line); endogenous in cells; host or cells: Calu6, NCI-H292, SK-MEL-24, SNU-C1, NCI-H1437, H2228, HCC15, H2030 and further human tumour lines
T1 sequence (P21589 27-549): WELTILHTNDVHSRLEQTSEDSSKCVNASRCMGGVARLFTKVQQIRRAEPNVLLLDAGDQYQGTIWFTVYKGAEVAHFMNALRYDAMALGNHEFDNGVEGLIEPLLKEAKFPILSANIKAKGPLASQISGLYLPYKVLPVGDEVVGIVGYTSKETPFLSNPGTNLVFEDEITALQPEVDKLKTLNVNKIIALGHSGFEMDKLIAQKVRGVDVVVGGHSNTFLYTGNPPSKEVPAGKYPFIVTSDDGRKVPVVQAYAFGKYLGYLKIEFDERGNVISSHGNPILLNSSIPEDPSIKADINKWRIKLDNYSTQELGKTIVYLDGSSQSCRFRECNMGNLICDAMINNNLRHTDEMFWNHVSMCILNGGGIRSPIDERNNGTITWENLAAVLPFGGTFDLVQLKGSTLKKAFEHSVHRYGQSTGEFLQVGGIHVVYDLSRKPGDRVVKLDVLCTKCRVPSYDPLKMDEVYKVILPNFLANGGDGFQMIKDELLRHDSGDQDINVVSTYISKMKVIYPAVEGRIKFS
Description: Inhibition of CD73 Enzymatic Activity in a Dual Cell Line cAMP Assay Homogenous Time Resolved Fluorescence (HTRF) cAMP Assay
CD73 antibodies were serial diluted with PBS buffer containing 0.2% BSA, and plated 5 μl/well in 384 well white bottom proxiplate (PerkinElmer, Waltham, Mass.). Calu-6 cells were harvested and resuspend in PBS containing 0.2% BSA, then 5 μl of cells (300 cells/well) were added to the plate. The cells were incubated with antibodies for 10 minutes at 37° C. […] The cells were further incubated with AMP for 30 minutes at 37° C. During this time, HEK293/A2AR cells were harvested and diluted to 0.4 million/ml in PBS containing 0.2% BSA. […] HRTF assays were performed using the homogenous time-resolved fluorescence (HTRF) HiRange cAMP detection kit (Cisbio, Bedford, Mass.) by adding 10 μl/well cAMP-conjugated d2 and 10 μl/well europium cryptate conjugated anti-cAMP antibody in lysis buffer according to the manufacturer's instructions. Plates were incubated at room temperature for 60 minutes and Fluorescence Resonance Energy Transfer (FRET) signals (665 and 615 nM) were read using an EnVision plate reader (PerkinElmer, Waltham, Mass.). The FRET signal was calculated as the ratio of signal from the 665 nm (acceptor) and 615 nm (donor) channels and multiplied by 10.000. IC50 and Ymax were measured. […]

[1] = SEC-MALS oligomeric state of CD73 mAbs; assay type: physicochemical
Description: The oligomeric state of CD73 mAbs were examined by size-exclusion chromatography coupled to an in-line multi-angle light scattering detector (SEC-MALS). Isocratic separations were performed on a Shodex PROTEIN KW-803 column connected to an Prominence Shimadzu UFLC in buffer containing 200 mM K2HPO4, 150 mM NaCl, pH 6.8, containing 0.02% Na azide (0.1 μm filtered) running at 0.5 mL/min. Samples were injected onto the column using a SIL-20AC Prominence Shimadzu autosampler, and data were obtained from three online detectors connected in series: a Prominence SPD-20AD diode array UV/vis spectrophotometer followed by a Wyatt miniDAWN™ TREOS Multi-Angle Light Scattering Detector then a Wyatt Optilab T-rEX Refractive Index Detector. Data (as shown in Table 15 below) were collected and analyzed using Astra (Wyatt) and Labsolutions (Shimadzu) software.

CD73 on NCI-H292 cells = target: T2, CD73 on NCI-H292 cells (Homo sapiens, UniProt P21589); assay: Flow cytometry based cross-blocking on NCI-H292 cells; assay type: binding; details: FITC-labeled 11F11, NCI-H292 cells
T2 construct: endogenous in cells; host or cells: NCI-H292
T2 sequence (P21589 27-549): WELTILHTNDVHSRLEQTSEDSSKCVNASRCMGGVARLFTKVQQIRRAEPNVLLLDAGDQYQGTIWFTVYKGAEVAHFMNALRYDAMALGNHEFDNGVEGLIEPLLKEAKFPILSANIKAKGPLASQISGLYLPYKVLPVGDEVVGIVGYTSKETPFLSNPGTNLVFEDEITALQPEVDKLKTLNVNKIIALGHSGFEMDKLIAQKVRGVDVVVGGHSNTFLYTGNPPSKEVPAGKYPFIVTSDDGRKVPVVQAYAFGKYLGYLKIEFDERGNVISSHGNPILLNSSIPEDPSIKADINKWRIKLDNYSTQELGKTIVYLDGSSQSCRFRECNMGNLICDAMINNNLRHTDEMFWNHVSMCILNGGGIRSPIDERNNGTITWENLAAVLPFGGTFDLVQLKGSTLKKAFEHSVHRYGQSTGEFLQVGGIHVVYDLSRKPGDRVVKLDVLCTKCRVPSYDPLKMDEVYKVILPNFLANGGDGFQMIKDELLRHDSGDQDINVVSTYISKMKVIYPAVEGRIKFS
Description: The antibodies were also subjected to flow cytometry based cross-blocking. The experiment was conducted as follows using one set of labeled fluorescently labeled antibody and a second set of unlabeled antibody: 100000 NCI-H292 cells were seeded per well. The plate was spun down and the cells were resuspended in 100 uL 2% FBS in PBS per well. The cells were blocked on ice for 20 min. Unlabeled antibody, as indicated, in 2% FBS in PBS was added to each well. […] 6 wells of cells were incubated without antibody, and were resuspended in 100 uL 2% FBS in PBS only (for controls). The cells were then incubated on ice for 30 min. The cells were washed twice with 2% FBS in PBS and the samples were resuspended in 140 uL 2% FBS in PBS, and analyzed on a FacsCalibur flow cytometer (Becton Dickinson).

CD73 = target: T3, CD73 (Homo sapiens, UniProt P21589); assay: CD73 internalization at 1, 4 or 21 hours by CD73.4 with heavy chain constant region variants (FIG. 31); assay type: cell-based; set-up: endogenous in cells; details: CD73.4 variable regions with the named constant region
T3 sequence (P21589 27-549): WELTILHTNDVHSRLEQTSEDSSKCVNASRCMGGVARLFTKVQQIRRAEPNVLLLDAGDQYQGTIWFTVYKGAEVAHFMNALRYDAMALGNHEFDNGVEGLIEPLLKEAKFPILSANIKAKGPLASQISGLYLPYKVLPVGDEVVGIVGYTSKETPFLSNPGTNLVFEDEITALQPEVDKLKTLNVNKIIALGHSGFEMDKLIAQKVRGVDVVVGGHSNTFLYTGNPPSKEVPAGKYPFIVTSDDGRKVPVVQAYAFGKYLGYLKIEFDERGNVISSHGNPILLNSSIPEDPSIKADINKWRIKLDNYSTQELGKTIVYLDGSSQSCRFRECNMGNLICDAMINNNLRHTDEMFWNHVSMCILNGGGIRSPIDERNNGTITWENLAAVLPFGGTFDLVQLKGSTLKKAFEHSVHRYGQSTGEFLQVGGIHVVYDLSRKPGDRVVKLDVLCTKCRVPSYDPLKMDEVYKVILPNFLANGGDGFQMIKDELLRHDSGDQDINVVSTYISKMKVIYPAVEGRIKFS
Description: The bars for each antibody are shown in the order of 21 hours (on the left), 4 hours (middle) and 1 hour (right).
Anti-CD73 antibodies (CD73.4) with the heavy chain constant regions shown in Table 31 were prepared and tested as described above in antibody mediated CD73 internalization assays.

Kd (cyno FcγRs): > 5000 nM | Kd (human FcγRs): < 5000 nM
Molecule: IgG2-C219S-G1.1f: effectorless IgG1/IgG2 hybrid constant region: CH1 and hinge from IgG2 (C219S), CH2 and CH3 of IgG1 (A330S/P331S); SEQ ID NO:169

Molecule: Nc1ncnc2c1ncn2[C@@H]1O[C@H](COP(=O)(O)CP(=O)(O)O)[C@@H](O)[C@H]1O [APCP]
IC50 (CD73 on Calu6 cells; cAMP assay): 1.29 nM | Ymax (CD73 on Calu6 cells; percentage of inhibition relative to 100 nM 11F11 set to 100%): 97

competition with 11F11 (cross-blocking) (CD73 on NCI-H292 cells): competes with 11F11
B1: 7A11: human anti-CD73 monoclonal antibody, IgG1za; VH SEQ ID NO: 88, VL SEQ ID NO: 92 (antibody, V domains shown)
VH: EVQLVESGGGLVQTGRSLRLSCAASGFTFDDYAMHWVRQAPGKGLEWVSDISWNSDIIGYADSVKGRFTISRDNAKNSLYLQMNSLRAEDTALYYCAKDIYGSGSSFFDYWGQGILVTVSS
VL: DIQMTQSPSSLSASVGDRVTITCRASQYISSWLAWYQQKPEKAPKSLIYAASSLQSGVPSRFSGSGSGTDFTLTISSLQPEDFATYYCQQYHSYPPTFGQGTRLEIK
modifications: Synthetic: 7A11 VH; Synthetic: 7A11 VK1
SEC % HMW [1]: 0.5% | SEC % LMW [1]: 0.5% | SEC % Monomer [1]: 98.5%

B2: IgG2.3/4: CD73.4 with IgG2 constant region with C219S/C220S (protein)
chain: ASTKGPSVFPLAPCSRSTSESTAALGCLVKDYFPEPVTVSWNSGALTSGVHTFPAVLQSSGLYSLSSVVTVPSSNFGTQTYTCNVDHKPSNTKVDKTVERKSSVECPPCPAPPVAGPSVFLFPPKPKDTLMISRTPEVTCVVVDVSHEDPEVQFNWYVDGVEVHNAKTKPREEQFNSTFRVVSVLTVVHQDWLNGKEYKCKVSNKGLPAPIEKTISKTKGQPREPQVYTLPPSREEMTKNQVSLTCLVKGFYPSDIAVEWESNGQPENNYKTTPPMLDSDGSFFLYSKLTVDKSRWQQGNVFSCSVMHEALHNHYTQKSLSLSPGK
modifications: Synthetic: IgG2.3/4
notes: CD73.4 with IgG2 constant region with C219S/C220S
antibody mediated CD73 internalization (in words) (CD73): much reduced internalization compared to IgG2.3 or IgG2.4 alone
